Common to all, as to assay: pulldown
Holding throughout (conditions): 20 nM protein, 1.5 uM RNA pool; 20 mM HEPES pH 7.8, 70 mM KCl, 10 mM NaCl, 10% glycerol, 2 mM DTT, 0.1 ug/uL BSA; 30 min, 4 C

Series [1] addresses T1, pab-1 (Caenorhabditis elegans) (UniProt Q9U302).
T1 sequence: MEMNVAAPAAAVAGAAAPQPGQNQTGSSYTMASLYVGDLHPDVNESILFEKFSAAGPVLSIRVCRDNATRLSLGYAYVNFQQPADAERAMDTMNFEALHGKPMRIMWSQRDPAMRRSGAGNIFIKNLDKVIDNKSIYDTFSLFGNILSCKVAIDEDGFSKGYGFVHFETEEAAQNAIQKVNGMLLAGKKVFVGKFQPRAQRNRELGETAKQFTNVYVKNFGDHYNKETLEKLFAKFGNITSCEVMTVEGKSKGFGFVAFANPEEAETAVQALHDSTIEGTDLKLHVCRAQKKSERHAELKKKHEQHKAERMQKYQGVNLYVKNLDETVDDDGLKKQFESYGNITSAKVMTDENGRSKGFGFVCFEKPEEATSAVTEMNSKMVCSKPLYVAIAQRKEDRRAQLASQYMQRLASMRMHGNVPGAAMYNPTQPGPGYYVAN

Series [2] has as its target pabpc4 (Xenopus tropicalis) (UniProt A0A8J0QFT8).
The target of series [3] is T2, Smp_024140 (Schistosoma mansoni) (UniProt G4VQ61).
T2 sequence: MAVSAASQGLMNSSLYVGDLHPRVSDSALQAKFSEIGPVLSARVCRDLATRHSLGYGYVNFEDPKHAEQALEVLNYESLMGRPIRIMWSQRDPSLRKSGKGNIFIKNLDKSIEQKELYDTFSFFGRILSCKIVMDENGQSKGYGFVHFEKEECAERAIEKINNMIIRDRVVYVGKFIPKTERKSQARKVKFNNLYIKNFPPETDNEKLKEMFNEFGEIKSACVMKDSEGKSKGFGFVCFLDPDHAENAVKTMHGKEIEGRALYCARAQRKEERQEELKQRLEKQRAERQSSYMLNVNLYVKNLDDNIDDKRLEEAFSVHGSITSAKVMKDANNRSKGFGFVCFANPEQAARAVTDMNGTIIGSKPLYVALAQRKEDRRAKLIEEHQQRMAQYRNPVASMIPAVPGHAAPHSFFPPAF

Series [4] deals with T3, pabpc1A (Dictyostelium discoideum) (UniProt Q54BM2).
T3 sequence: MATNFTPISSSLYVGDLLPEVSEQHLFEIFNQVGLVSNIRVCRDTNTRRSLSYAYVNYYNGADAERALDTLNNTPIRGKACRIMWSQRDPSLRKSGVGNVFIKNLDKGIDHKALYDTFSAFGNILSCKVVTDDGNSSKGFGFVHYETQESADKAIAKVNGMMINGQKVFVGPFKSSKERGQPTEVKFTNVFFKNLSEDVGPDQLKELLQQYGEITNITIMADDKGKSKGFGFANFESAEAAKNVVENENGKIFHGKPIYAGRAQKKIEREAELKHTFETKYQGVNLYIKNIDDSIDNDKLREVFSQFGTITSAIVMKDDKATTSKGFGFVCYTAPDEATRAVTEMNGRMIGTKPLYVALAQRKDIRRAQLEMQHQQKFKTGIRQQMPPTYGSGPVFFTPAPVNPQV

For series [5], the target named is T4, PK01594.1 (Cannabis sativa) (UniProt A0A803NG34).
T4 sequence: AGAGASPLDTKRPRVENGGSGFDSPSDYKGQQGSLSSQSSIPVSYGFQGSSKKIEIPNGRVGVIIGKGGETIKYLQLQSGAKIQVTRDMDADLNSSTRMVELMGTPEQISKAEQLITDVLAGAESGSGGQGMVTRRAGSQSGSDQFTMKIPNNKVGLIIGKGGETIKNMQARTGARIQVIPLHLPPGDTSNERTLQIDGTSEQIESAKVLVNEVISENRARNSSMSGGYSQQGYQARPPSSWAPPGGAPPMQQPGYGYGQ

Series [6] addresses T5, grld-1 (Caenorhabditis elegans) (UniProt H2KYB8).
T5 sequence: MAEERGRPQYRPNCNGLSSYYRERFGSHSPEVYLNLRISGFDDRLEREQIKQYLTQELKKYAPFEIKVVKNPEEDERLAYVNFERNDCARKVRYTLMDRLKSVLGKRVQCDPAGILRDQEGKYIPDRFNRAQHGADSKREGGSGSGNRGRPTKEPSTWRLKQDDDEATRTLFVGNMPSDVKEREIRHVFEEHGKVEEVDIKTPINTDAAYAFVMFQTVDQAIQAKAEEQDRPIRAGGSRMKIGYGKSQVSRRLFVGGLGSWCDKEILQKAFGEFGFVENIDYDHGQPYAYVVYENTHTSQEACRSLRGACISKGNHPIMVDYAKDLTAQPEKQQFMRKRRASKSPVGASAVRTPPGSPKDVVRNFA

Series [7] concerns the target T6, CG15440 (Drosophila melanogaster) (UniProt Q7KU43).
T6 sequence: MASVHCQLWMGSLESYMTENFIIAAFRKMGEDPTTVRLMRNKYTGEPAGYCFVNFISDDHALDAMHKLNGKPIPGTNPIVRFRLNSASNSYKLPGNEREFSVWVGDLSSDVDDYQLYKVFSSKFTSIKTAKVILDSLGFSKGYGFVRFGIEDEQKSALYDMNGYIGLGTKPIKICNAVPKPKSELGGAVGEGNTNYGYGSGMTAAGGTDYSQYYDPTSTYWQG

Series [8] deals with T7, PF14_0151 (Plasmodium falciparum) (UniProt Q8ILU3).
T7 sequence: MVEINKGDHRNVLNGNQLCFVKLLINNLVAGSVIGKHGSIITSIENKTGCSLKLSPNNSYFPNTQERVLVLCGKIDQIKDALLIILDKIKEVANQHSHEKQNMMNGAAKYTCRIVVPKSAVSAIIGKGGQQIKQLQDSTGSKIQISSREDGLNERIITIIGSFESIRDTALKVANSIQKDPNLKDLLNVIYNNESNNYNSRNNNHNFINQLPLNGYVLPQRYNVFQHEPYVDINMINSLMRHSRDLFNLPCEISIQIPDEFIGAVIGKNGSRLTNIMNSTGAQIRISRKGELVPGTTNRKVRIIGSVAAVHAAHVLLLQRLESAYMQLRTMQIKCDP

Series [9] deals with PGTG_00837 (Puccinia graminis) (UniProt E3JTY5).

Sequence of pabpc4 (Xenopus tropicalis) (A0A8J0QFT8 entry or part of it): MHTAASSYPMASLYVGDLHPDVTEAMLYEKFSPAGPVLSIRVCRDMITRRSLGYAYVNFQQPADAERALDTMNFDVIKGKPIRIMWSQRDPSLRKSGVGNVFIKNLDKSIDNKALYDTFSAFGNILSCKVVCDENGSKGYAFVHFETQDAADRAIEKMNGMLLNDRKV

The substance AAAAAA [RNAcompete motif RNCMPT00471] yielded a binding signal (z-score (mean of top ten 7-mers)) in series [1] of 12.5. Turning to AAAAAAG [RNAcompete motif RNCMPT00511], the binding signal (z-score (mean of top ten 7-mers)) in [2] worked out at 13.4. In turn, AAAAAA [RNAcompete motif RNCMPT00501] came in with a binding signal (z-score (mean of top ten 7-mers)) in series [3] of 8.02. AAAAAAA [RNAcompete motif RNCMPT00508] came in with a binding signal (z-score (mean of top ten 7-mers)) in [4] of 14.8. In turn, AUAUUGU [RNAcompete motif RNCMPT00478] registered a binding signal (z-score (mean of top ten 7-mers)) in series [5] of 7.33. Take ACUACUA [RNAcompete motif RNCMPT00509]: in series [6], the binding signal (z-score (mean of top ten 7-mers)) is 8.74. For GAUAUU [RNAcompete motif RNCMPT00513], the binding signal (z-score (mean of top ten 7-mers)) in series [7] worked out at 13.9.

In series [8], AUACANA [RNAcompete motif RNCMPT00505] came in with a binding signal (z-score (mean of top ten 7-mers)) of 8.57. Regarding GGUGGA [RNAcompete motif RNCMPT00476], the binding signal (z-score (mean of top ten 7-mers)) in series [9] stood at 6.99.

These data come from publication PMC12990809.
